According to the nanobody polyreactivity screen of Harvey et al. (2022):

Assay: yeast display, Sf9 membrane polyspecificity reagent, FACS + sequencing; frameworks hold sequencing errors
In short: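 Galactose-induced (36–48 hours) yeast carrying a synthetic nanobody display library were exposed to 10% biotinylated, detergent-solubilized Sf9 membrane reagent at 4 °C for 1 hour. FACS followed streptavidin microbead enrichment, using low and high (top ~1%) gates for expression (anti-HA) and reagent binding (streptavidin). Colony PCR, MiSeq 2 × 250 sequencing and CDR-length filtering followed. Labels for polyreactivity reflect the gate of origin.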

Sequence | polyreactivity (PSR sort gate)
QVQLVESGGGLVQAGGSLSLSCAASGRTLYSNAMGWYRPAPGKERELVAAISRRGSSTYYADSVKGRFTISRDNAKNSVFLQMNSLKPEDTAVYYCARYKYTRQTRVEYGYWGQGTQVTVSS | high polyreactivity
QVQLVESGGGLVQAGGSLSLSCAASGRTLYVYTMGWYRQAPGKERELVASISSGVGTNYADSVKGRFTISRDNAKNTDYLQMNSLKPEDTAVYYCAARFRYYRHYYWGQGTQVTVSS | high polyreactivity
QVQLVESGGGLVQAGGSLSLSCAASGRTMYTNAMGWYIQAPGKERELVAVITLSTDGTYYADSVKGRFTISRDNAKNTVYLQMNSLKPEDTAVYYCAIGDPDGDREIWRLYYWGQGTKVTVSS | low polyreactivity
QVQLVESGGGLVQAGGSLSLSCAASGSIFESNAMGLYRQAPGKERELVAAYADSVKGRFTISRDNAKNTVYLQMNSLKPEDTAVYYCAKSLSLYVVPLYEYWGQGTQVTVSS | low polyreactivity
QVQLVESGGGLVQAGGSLSLSCAASGSIFYYYAMGWYRKAPGKERELVASIRSGGSTNYADSVKGRFTISRDNAKNTVYLQKNSLKPEDTAVYYCAARKFYASSLRYGYWGQCTQVTVSS | high polyreactivity
QVQLVESGGGLVQAGGSLSLSCAASGSILVGYAMGWYRQAPGKERELVARISTSGGSTTYYADSVKGRFTISRDNAKNTVYLQMNSLKPEDTAVYYCAADYKPYYRRRYDYWGQGTQVTVSS | low polyreactivity
QVQLVESGGGLVQAGGSLSLSCAASGSNFVYYAMGWSRQAPGKERELVAAINFRGGNTYYADSVKGRFTISRDNAKNTVYLQMNSLKPEDTAVYYCAADYRWKWIGGARYDYWGQGTQVTVSS | low polyreactivity
QVQLVESGGGLVQAGGSLSLSCAASGSTFIKNAMGWYRQAPGKESELVAAINWSGTRTYYADSVKGRFTISRDNANNTVYLKMNSLKPEDTAVYYCAKVIARFVRYDYWGQGTQVTVSS | high polyreactivity
QVQLVESGGGLVQAGGSLSLSCAASGSTFQLYAKGWYRQAPGKERELVAAISGIGDSTYYADSVKWRFTISRDNAKNTVYLLMNSLKPEDTAVYYCAREFSDGLSGKFDYWGHGTQVTVSS | low polyreactivity
QVQLVESGGGLVQAGGSLSLSCAASGSTFSRNTMGRYRQAPRKERELVAGISSSGGSTYYADSVKGRFTISRDNAKNTVYLQMNSLKQEDTAVYYCSARFYVSFVGYNYWGQGTQVTVSS | high polyreactivity
QVQLVESGGGLVQAGGSLSLSCAASGSTFYYNAMGWYRQAPGKEREFVAAINWRGGSTYYADSVKGRFTISRDNAKNTVYLQMNSLKPEDTAVYYCSAEEASTYYYVRSGYDYHFWEMYSWGQGTQVTVSS | low polyreactivity
QVQLVESGGGLVQAGGSLSLSCAASGSTMATYTMGWYRQAPGKERELVAAISFGGSTYYADSVKGRFTISRDNAKNTVYLQMNSLKPEDTAVYYCAVYGDSYWGAYYYSDGYWGQGTQVTVSS | low polyreactivity
QVQLVESGGGLVQAGGSLSLSCAATGSTFAQNAMGWYRQAPGKERELVAAISRRGGSTYYADSVKGRFTISRDNAKNTVYVQMNSLKPEDTAVYYCAADQPVRQHHRDDYWGQGTQVTVSS | low polyreactivity
QVQLVESGGGLVQAGGSLSLSCAAYGGIFPENAMGWYRLAPGKERELVAAMSRSGSSTYYADSVKGRFTISRDNAKNTVFLQMNSLKPEVTAVSYCAARGVKWGQGSQVTVSS | high polyreactivity
QVQLVESGGGLVQAGGSLSLSCADSGLTFRKYAMGWYRQAPGKERELVAAISWSGGSTYYANSVKGRFTISRDNAKNTVYLQMNSLKPEETAVYYCAAVPVHTGSMYWGFTNGYDYWGQGTQVTLSS | low polyreactivity
QVQLVESGGGLVQAGGSLSLSCDASGFTFRYYFMGWYRQAPGKERELVAAISYTGRTTYYADSVKGRFTISRDNAKNTVYLQMNSLKPEDTAVYYCASGAIGYNGKAYGMDYWGQGTEVTVSS | high polyreactivity
QVQLVESGGGLVQAGGSLSLSCDASGRIFVVKAMGWYRQAPGKERELVAAITRRGGSTYADSVKGRFTISRDNAKNTVYLQMNSLKPEDTAVYYCNAESYYGIFSYKYDYWGQGTQVTVSS | high polyreactivity
QVQLVESGGGLVQAGGSLSLSSAASGRTFTFNTMGWYRQAPGKERELVAAIDGDGTTNYADSVKGRFTISRDNAKYTVYLQMNSLKPEDTAVYYCAADFLYSFWYEPTFDYWGQGTQVTVSS | low polyreactivity
QVQLVESGGGLVQAGGSLSLSWAASGFILKINTMGWYRPAPRKERDLVADITESGGNTYADSEKWRFTISRDNAKNTVYLQMNSLKPEVTAVYYCNDDIYISPLVQVSKGYDYWGQGTQVTVSS | low polyreactivity
QVQLVESGGGLVQAGGSLSLTCAASGITFPRNAMGWSRQAPGKERELVAAISARGGNTYYADSVKGRFTISRDNSKNTVYLQMNSLKPEDTAVYYCNALGSSYSEPSEYDYWGQGTQVTVSS | low polyreactivity
QVQLVESGGGLVQAGGSLSLTCAASGITFYLYAMGWDIQAPGKERELVAAISSGSRTTYADSVKGRFTISRDNEKNTVYLQMNSLKPEDTAFYYCAAAYWNWGYYYSYDYWGQGTQVTVSS | high polyreactivity
QVQLVESGGGLVQAGGSLSLTCDAYGRTIYKYGMGWYREAPGKERDLVARINSNGGSTYYADSVKGRFTISRDNAKNTVYLELISLKPEDTAVYYCARSYVRSYGYYYWGQGTQVTVSS | low polyreactivity

Sequence | polyreactivity (PSR sort gate)
QVQLVESGGGLVQAGGSRLSCAASGLIFIWYTMGWYRQAPGKERELVAAIDSSGGNTYYADSVKGRFTISRDNAKNPVYLQMNSLKPAETAVYYCATDVGHGAGNLMGYWGQGTQVTVSS | low polyreactivity
QVQLVESGGGLVQAGGSRRLSCAASGFFFRNYAMGWYRQAPGKEMELVAVITSSGGSTYYADSVKGRFTISRDNAKNTVYLQMNSLKPEDTAVYYCNKPGLRSGPRYDYWGQGTQVTVSS | high polyreactivity
QVQLVESGGGLVQAGGSRRLSCAASGFIFSGYAMGWYRQERGKERELVAAITRSGSRTYYADSVKGRFTISRDNAKNTVYLQMNSLKPEDTAVYYCAKDKPKYGISTIDYWGQGTLVTVSS | high polyreactivity
QVQLVESGGGLVQAGGSRRLSCAASGFIFTTYTRGWYRQATGTERELVAAIRSDGVRTYYADSVKGRFTISRDNAKNTVYLQMNSLKPEDTAVYYCNRVCAVRIGAGDYWGQGTQVTVSS | high polyreactivity
QVQLVESGGGLVQAGGSRRLSCAASGITFGWYAMGWYRQAPGKEMEWVATISQSGTSTYYADSVKGRFTISRDNAKNTVYLKMISLKPEDTAFYYCAADYIRGYYFRVRLEVDYWGQGTQVTVSS | low polyreactivity
QVQLVESGGGLVQAGGSRRLSCAASGITFSRYAMGWYRQAPGKERELVAAITSSGGSTYYADSVKGRFTISRDNAKNTVYLQMNSLKPEDTAVYYCAATSYYTREQYYYWGQGTQVTVSS | high polyreactivity
QVQLVESGGGLVQAGGSRRLSCAASGLIFVHYTMGWYRQATGKERELVAAITSSGGSTYYAYSVKGRFTISRDNAKNTVYLEMNSMKPEDTAVYYCATKSYSPTRTRFYYWGQGTQVTVSS | high polyreactivity
QVQLVESGGGLVQAGGSRRLSCAASGRIFTYYAMGWYRQAPGKERELVAAISSGGSTYYADSVKGRFTISRDNAKNTVYLQMNSLKPEDTAVYYCAAAGGYYGVNWRGDSWGQGTQVTVSS | high polyreactivity
QVQLVESGGGLVQAGGSRRLSCAASGRTFEGNAMGWYRQAPGKERELVAAITSGGRTNYADSVKGRFTISRDNAKNTVYLQMNSLKPEDTAVYYCAVDTRDRSTYFPGQAYDFWGQGTQVTVSS | low polyreactivity
QVQLVESGGGLVQAGGSRRLSCAASGRTFSKNAMGWYRQAPGKERELVAAISGSGGSTYYADSVKGRFTISRDNAKNSVYLQMNSLKPEDTAVYYCAADGTGFRYLRYDYWGQGTQVTVSS | high polyreactivity
QVQLVESGGGLVQAGGSRRLSCAASGRTFYLYAMGWYIQARGQERELVAANTTSGGSTYYADSVKGRFTISRDKAKNTVYLQMHSLKPEDTAVYYCNKDLSTTKFDDWGQGTQVTVSS | low polyreactivity
QVQLVESGGGLVQAGGSRRLSCAASGRTLGHNAMGWYRQAPGKERELVAAITSRGGTTYADSVKGRFTISRDNAKNTVYLQMNSLTPEDTAVYYCAARGYAYSRYYFWGQGTQVTVSS | high polyreactivity
QVQLVESGGGLVQAGGSRRLSCAASGSIFYLYAMGWSRQAPGKERELVATITWSGGSTYYADSVKGRFTISRDTAKNTVYLQMNSLKPEDTAVYYCAATALEWYPAVYNQYYYWGQGTQVTVSS | low polyreactivity
QVQLVESGGGLVQAGGSRRLSCAASGSILSKYTMGWYRQATGKERELVAVISSSGASTYYADSVKGRFTISRDNAKNTVYLQMNSLKPEDTAVYYCATYPWYSKYRYDHWGQGTQVTVSS | high polyreactivity
QVQLVESGGGLVQAGGSRRLSCAASGSTFYPYAMGWYRQAPGKERELVAAITWSGGRTYYADSVKGRFTISRDNAKNTVYLQMNSLKPEDTAVYYCAADRPDRWVDYWGQGTQVTVSS | low polyreactivity
QVQLVESGGGLVQAGGSRRLSCAPSGSIIGEYAMGWYRQAAGKERELVAAINVNGGRTYYADSVKGRFTISRDNAKYTVYLQMNRLKPEETAVYYCNAGYYLTLDYWGQGTQVTVSS | high polyreactivity
QVQLVESGGGLVQAGGSRRLTCAASGSIFFYNAMGWYRQATGKERELVAAISSATSTYYADSVKGRFTISRDNAMISVYVHMNSLTEEDTAVYYCAADFSDGYFWYDYWGQGTQVTVSS | high polyreactivity
QVQLVESGGGLVQAGGSRRVSCAASGITFPNYAMGWYRQAPGKERELVAAITGSGGSTYYADSVKGRFTISRDNAKNTVYVQMNSLKPEDTAVYYCNAVYYRYIRGFYYWGPGTQVTVSS | high polyreactivity
QVQLVESGGGLVQAGGSVRLSCAASGRIFRYYMGWYRQAPGKEREFVAAITTRGGRTYYADSVKGRFTISRDNAKNTVSLQMNSLKPEDTAVYYCAAGYNGAIIALRAYDYWGQGTQVTVSS | high polyreactivity
QVQLVESGGGLVQAGGSVRLSCAASGSIFNANTMGWYRQAPGKERELVAVITSGGTTNYADSVKGRFTISRDNAKNTVYLQMNSLKPEDTAVYYCAVRISGNWYDYWGQGTQVTVSS | low polyreactivity
QVQLVESGGGLVQAGGSVRLSCAASGSTSAYAMGWYRQAPGKEREFVAAIRFSAGSTYYADSVKGRFTISRDNAKNTVYLQMNSLKPEDTAVYYCAASYSVIFGYFPDYYWVVEYDYWGQGTQVTVSS | high polyreactivity
